PMC6203815

Assay: Ni-NTA recovery from HEK293, Coomassie SDS-PAGE
Conditions: glycan lost; control: wild-type Pfs48/45 6C

B1: Pfs48/45 6C: S305A (protein)
parent chain: MMLYISAKKAQVAFILYIVLVLRIISGNNDFCKPSSLNSEISGFIGYKCNFSNEGVHNLKPDMRERRSIFCTIHSYFIYDKIRLIIPKKSSSPEFKILPEKCFQKVYTDYENRVETDISELGLIEYEIEENDTNPNYNERTITISPFSPKDIEFFCFCDNTEKVISSIEGRSAMVHVRVLKYPHNILFTNLTNDLFTYLPKTYNESNFVSNVLEVELNDGELFVLACELINKKCFQEGKEKALYKSNKIIYHKNLTIFKAPFYVTSKDVNTECTCKFKNNNYKIVLKPKYEKKVIHGCNFSSNVSSKHTFTDSLDISLVDDSAHISCNVHLSEPKYNHLVGLNCPGDIIPDCFFQVYQPESEELEPSNIVYLDSQINIGDIEYYEDAEGDDKIKLFGIVGSIPKTTSFTCICKKDKKSAYMTVTIDSAYYGFLAKTFIFLIVAILLYI
expression_or_secretion: decreases
